T1: AXL on the surface of human tumor cells (human, UniProt P30530 26-894)
T1 sequence: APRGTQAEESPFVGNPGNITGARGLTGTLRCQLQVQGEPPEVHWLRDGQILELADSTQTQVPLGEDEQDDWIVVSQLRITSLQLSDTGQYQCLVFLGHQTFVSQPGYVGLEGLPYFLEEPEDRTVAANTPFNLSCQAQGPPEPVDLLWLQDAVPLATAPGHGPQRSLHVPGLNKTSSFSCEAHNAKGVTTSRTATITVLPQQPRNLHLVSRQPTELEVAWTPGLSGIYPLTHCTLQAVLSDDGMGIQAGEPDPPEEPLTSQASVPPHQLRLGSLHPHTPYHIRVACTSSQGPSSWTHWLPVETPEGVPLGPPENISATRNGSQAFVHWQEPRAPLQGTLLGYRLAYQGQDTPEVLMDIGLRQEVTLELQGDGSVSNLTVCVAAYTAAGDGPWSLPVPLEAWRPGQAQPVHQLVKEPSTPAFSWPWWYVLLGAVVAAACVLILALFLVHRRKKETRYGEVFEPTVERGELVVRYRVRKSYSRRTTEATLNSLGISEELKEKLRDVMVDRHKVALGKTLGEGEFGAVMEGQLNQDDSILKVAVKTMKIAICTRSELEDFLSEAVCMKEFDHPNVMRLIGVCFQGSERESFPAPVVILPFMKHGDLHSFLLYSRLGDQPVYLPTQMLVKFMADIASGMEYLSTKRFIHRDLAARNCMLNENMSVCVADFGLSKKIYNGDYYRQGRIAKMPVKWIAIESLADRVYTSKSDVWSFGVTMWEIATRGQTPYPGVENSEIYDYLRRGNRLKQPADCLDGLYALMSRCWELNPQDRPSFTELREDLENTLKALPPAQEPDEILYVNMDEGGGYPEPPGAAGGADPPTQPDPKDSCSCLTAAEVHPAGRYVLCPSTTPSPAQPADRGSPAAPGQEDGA

T2: TROP2 (Beijing Yiqiao Shenzhou Biotechnology Co., Ltd.) (UniProt P09758 27-274)
T2 sequence (looked up): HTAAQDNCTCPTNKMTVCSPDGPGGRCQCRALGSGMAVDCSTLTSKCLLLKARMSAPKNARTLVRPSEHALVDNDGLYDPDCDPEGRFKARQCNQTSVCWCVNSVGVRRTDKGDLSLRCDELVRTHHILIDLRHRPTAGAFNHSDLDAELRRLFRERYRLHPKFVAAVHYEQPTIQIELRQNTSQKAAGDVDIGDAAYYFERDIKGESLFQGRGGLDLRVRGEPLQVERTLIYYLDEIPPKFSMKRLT

T3: BCMA (ACRO Biosystems) (UniProt Q02223 1-54)
T3 sequence (looked up): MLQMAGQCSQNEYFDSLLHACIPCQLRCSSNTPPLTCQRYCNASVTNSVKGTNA

T4: CD38 (Beijing Yiqiao Shenzhou Biotechnology Co., Ltd.) (UniProt P28907 43-300)
T4 sequence (looked up): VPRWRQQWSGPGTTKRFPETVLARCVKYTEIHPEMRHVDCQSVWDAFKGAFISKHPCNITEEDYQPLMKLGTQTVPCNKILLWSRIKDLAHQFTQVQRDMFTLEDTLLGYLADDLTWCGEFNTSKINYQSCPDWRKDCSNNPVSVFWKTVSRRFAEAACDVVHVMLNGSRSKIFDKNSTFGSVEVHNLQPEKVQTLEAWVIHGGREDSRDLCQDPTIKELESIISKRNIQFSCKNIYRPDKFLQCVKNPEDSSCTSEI

T5: Gas6 (R&D) (UniProt Q14393 49-678, limits assumed)
T5 sequence (looked up): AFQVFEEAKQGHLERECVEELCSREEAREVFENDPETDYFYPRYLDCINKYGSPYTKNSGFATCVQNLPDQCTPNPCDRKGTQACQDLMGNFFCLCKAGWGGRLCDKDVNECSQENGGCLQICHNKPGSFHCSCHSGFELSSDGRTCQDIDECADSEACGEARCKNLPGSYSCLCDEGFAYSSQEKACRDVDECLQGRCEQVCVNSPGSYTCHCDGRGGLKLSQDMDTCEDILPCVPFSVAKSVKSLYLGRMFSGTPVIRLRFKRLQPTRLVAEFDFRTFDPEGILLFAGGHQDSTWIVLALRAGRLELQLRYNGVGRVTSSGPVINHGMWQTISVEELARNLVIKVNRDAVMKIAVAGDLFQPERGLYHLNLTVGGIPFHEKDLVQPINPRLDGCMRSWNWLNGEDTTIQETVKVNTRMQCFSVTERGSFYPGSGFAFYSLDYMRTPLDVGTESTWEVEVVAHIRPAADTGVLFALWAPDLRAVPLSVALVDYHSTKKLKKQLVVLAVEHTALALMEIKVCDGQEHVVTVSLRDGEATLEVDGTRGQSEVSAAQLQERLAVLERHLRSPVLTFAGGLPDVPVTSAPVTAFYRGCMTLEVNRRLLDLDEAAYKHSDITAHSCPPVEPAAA

T6: CD19 (Beijing Yiqiao Shenzhou Biotechnology Co., Ltd.) (UniProt P15391 20-291)
T6 sequence (looked up): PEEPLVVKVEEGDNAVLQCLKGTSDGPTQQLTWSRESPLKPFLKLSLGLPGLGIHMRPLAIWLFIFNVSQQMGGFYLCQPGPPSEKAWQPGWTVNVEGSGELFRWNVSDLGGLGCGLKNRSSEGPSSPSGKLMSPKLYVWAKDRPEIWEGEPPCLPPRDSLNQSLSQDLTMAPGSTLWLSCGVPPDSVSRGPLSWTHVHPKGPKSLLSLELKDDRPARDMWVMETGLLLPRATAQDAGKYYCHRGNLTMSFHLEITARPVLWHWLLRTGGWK

T7: AXL (Beijing Yiqiao Shenzhou Bio Technology Co., Ltd., 6xHis label, with a molecular weight of 65 Kda) (UniProt P30530 33-449)
T7 construct: Bought protein used as the mobile phase in BIACORE; not shown: 6xHis label
T7 sequence (looked up): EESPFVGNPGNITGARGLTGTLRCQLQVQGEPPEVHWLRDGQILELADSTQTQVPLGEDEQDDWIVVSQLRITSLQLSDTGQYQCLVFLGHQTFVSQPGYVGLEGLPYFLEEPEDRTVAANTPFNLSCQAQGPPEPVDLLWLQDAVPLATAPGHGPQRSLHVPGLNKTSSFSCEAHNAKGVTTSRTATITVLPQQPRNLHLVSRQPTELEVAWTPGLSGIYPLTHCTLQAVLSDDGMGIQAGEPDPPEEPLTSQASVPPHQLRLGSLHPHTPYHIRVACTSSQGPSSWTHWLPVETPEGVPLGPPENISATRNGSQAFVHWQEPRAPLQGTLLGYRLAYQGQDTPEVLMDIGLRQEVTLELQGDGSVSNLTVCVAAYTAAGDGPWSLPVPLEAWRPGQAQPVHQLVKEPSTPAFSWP

B1: C6G12 antibody (Chimeric 6G12) (antibody, human IgG1, kappa, V domains shown)
VH: QVQLKQSGPGLVKPSQSLSLTCSVTGFSISSGYYWNWIRQFPGNKLEWMGYRSYDGSNNYNPSLKNRISITRDTSKNQFFLKLNSVTTEDTATYYCARGWLLHYTMDYWGQGTSVTVSS
VL: ELVMTQSPFSNAVTLGTSASISCRSSRSLLHSNGFTYLYWYLQKPGQSPQLLIYQMSNLASGVPDRFSSSGSGTDFTLRISRVEAEDVGVYYCGQNLELPLTFGAGTKLELKR
notes: 6G12 variable regions with a human IgG1 constant region, expressed in CHO-S cells and purified by Protein A; also called chimeric antibody
B2: 6G12 antibody (antibody, V domains shown)
VH: B1 VH
VL: ELVMTQSPFSNAVTLGTSASISCRSSRSLLHSNGFTYLYWYLQKPGQSPQLLIYQMSNLASGVPDRFSSSGSGTDFTLRISRVEAEDVGVYYCGQNLELPLTFGAGTKLELK
notes: also called monoclonal antibody 6G12

Columns and labels:
[1] = molecular target: T1, AXL on the surface of human tumor cells; test: cell-based or functional assay
[2] = molecular target: T2, TROP2 (Beijing Yiqiao Shenzhou …); test: ELISA, protein coated at 1 ug/ml, OD 450 nm
Experimental: (§1) Milk (Beijing Bomed Biotechnology Co., Ltd.), BSA (BOVOGEN), CD19 (Beijing Yiqiao Shenzhou Biotechnology Co., Ltd.), TROP2 (Beijing Yiqiao Shenzhou Biotechnology Co., Ltd.), BCMA (ACRO Biosystems), CD47 (Beijing Magpel Biotechnology Co., Ltd.), CD38 (Beijing Yiqiao Shenzhou Biotechnology Co., Ltd.), Gas6 (R&D) and each protein and AXL (ACRO Biosystems) were coated with ELISA plates at 1 μg/ml at 4° C. overnight, respectively. After washing with PBST, 10% fetal bovine serum was added and blocked at 37° C. for 1 hour. The C6G12 antibody prepared in Example 3 was added and reacted at 37° C. for 1 hour. After washing with PBST, horseradish peroxidase labeled goat anti-human IgG secondary antibody (GOAT Anti human (HRP), Thermo Fisher Scientific, #31412) was added and reacted at room temperature for 30 minutes. The plates were repeatedly washed with PBST for 5 times, and dried the residual droplets as possible on absorbent paper. […] (eBioscience, #85-00-420) was added and stood at room temperature (20±5 ) in the dark for 1.5 minutes. […] stop solution was added to each well to stop the substrate reaction. The OD value was read with a microplate reader at 450 nm. The binding abilities of antibodies and proteins were analyzed.

BCMA (ACRO Biosystems) = molecular target: T3, BCMA (ACRO Biosystems); test: ELISA, protein coated at 1 ug/ml, OD 450 nm
Experimental: as §1

[3] = molecular target: CD47 (Beijing Magpel Biotechnology Co., Ltd.) (UniProt Q08722 19-139, limits assumed); test: ELISA, protein coated at 1 ug/ml, OD 450 nm
CD47 (Beijing Magpel Biotechnology Co., Ltd.), sequence (Q08722 19-139 limits assumed): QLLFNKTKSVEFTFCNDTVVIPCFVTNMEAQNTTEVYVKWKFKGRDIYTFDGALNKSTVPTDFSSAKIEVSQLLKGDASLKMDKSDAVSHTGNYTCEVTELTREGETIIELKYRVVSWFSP
Experimental: as §1

[4] = molecular target: T4, CD38 (Beijing Yiqiao Shenzhou …); test: ELISA, protein coated at 1 ug/ml, OD 450 nm
Experimental: as §1

Gas6 (R&D) = molecular target: T5, Gas6 (R&D); test: ELISA, protein coated at 1 ug/ml, OD 450 nm
Experimental: as §1

BSA (BOVOGEN) = molecular target: T8, BSA (BOVOGEN) (UniProt P02769 25-607); test: ELISA, protein coated at 1 ug/ml, OD 450 nm
T8 construct: Specificity control
T8 sequence (P02769 25-607 limits assumed): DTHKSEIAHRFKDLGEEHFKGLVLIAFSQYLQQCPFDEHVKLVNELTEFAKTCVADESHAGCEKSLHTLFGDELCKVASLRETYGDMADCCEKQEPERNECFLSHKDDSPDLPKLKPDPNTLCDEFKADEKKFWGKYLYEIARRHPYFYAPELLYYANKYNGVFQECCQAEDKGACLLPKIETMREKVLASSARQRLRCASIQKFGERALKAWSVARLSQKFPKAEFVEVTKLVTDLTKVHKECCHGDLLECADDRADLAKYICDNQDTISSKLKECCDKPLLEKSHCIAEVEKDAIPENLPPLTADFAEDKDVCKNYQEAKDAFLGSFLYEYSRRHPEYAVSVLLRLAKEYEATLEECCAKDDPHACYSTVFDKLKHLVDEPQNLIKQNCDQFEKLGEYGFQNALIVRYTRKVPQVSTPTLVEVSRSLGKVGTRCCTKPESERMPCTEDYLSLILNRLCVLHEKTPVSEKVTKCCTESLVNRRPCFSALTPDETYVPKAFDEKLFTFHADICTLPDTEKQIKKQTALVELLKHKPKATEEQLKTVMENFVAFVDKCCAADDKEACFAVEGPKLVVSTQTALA
Experimental: as §1

[5] = molecular target: T6, CD19 (Beijing Yiqiao Shenzhou …); test: ELISA, protein coated at 1 ug/ml, OD 450 nm
Experimental: as §1

[6] = molecular target: T9, AXL-Fc (fusion protein of human AXL protein extracellular domain-human IgG1 Fc) (human); test: ELISA, AXL-Fc coated at 1 ug/ml, anti-human Fab-HRP detection
T9 construct: Expressed in CHO-K1 cells
Experimental: The AXL-Fc prepared in Example 1 was coated on the ELISA plate at 1 μg/ml at 4° C. overnight. After washing with PBST, 10% fetal bovine serum was added and blocked at 37° C. for 1 hour. Different concentrations of the C6G12 antibody prepared in Example 3 were added and reacted at 37° C. for 1 hour. After washing with PBST, horseradish peroxidase-labeled goat anti-human Fab secondary antibody (Goat Anti-human IgG(Fab′)2 (HRP), Abcam) was added and reacted at 37° C. for 30 minutes. The plate was repeatedly washed with PBST for 5 times, and dried to remove residual droplets as possible by absorbent paper. 100 μl of TMB (eBioscience) was added to each well, and stood at room temperature (20±5° C.) in the dark for 1.5 minutes. 100 μl of 2N H₂SO₄ stop solution was added to each well to stop the substrate reaction. The OD value was read with a microplate reader at 450 nm. The binding ability of the C6G12 antibody to AXL-Fc was analyzed.

[7] = molecular target: T7, AXL (Beijing Yiqiao Shenzhou Bio …); test: SPR (BIACORE), C6G12 captured by anti-human IgG-Fc antibody, AXL-His as mobile phase
Experimental: The antibody affinity was analyzed by BIACORE biomacromolecule interaction analyzer (GE Company). The anti-human IgG-Fc antibody (purchased from Abcam) was coupled to the chip, and used to capture the C6G12 antibody with an antibody concentration set as 0.5 μg/mL and an injection time of 60 seconds. AXL (Beijing Yiqiao Shenzhou Bio Technology Co., Ltd., 6×His label, with a molecular weight of 65 Kda) was taken as the mobile phase, with 6 concentration gradients (1, 0.4, 0.16, 0.064, 0.0256, 0.01024 μg/mL), a binding time of 180 seconds, and a dissociation time of 1200 seconds.

[8] = molecular target: T9, AXL-Fc (fusion protein of human AXL …); test: ELISA, AXL-Fc coated at 1 ug/ml, anti-mouse IgG-HRP detection
Experimental: The AXL-Fc prepared in Example 1 was coated on the ELISA plate at 1 μg/ml at 4° C. overnight. After washing with PBST, 10% fetal bovine serum was added and blocked at 37° C. for 1 hour. Different concentrations of the 6G12 antibodies were added and reacted at 37° C. for 1 hour. After washing with PBST, horseradish peroxidase-labeled goat anti-mouse secondary antibody (Goat Anti-mouse IgGHRP, Abcam) was added and reacted at 37° C. for 30 minutes. The plate was repeatedly washed with PBST for 5 times, and dried to remove residual droplets as possible by absorbent paper. 100 μl of TMB (eBioscience) was added into each well, and stood at room temperature (20±5 ) in the dark for 1.5 minutes. 100 μl of 2N H₂SO₄ stop solution was added to each well to stop the substrate reaction. The OD value was read with a microplate reader at 450 nm. The binding ability of the antibody to AXL-Fc was analyzed.

Binder	internalization efficiency EC50 on human breast cancer MDA-MB-231 cells (flow cytometry, surface MFI at 4 C against 37 C) [1] [ng/mL]	internalization efficiency EC50 on human non-small cell lung cancer A549 cells (flow cytometry, surface MFI at 4 C against 37 C) [1] [ng/mL]	internalization efficiency EC50 on human pancreatic cancer MIA PaCa-2 cells (flow cytometry, surface MFI at 4 C against 37 C) [1] [ng/mL]	internalization efficiency EC50 on renal clear cell adenocarcinoma 786-O cells (flow cytometry, surface MFI at 4 C against 37 C) [1] [ng/mL]	binding result [2]	binding result (BCMA (ACRO Biosystems))	binding result [3]	binding result [4]	binding result (Gas6 (R&D))	binding result (BSA (BOVOGEN))	binding result [5]	EC50 [6] [µg/mL]	Kd [7] [nM]	koff [7] [s⁻¹]	kon [7] [M⁻¹ s⁻¹]	EC50 [8] [µg/mL]
B1	0.89	0.61	1.3	1.5	no binding	no binding	no binding	no binding	no binding	no binding	no binding	0.0194	0.154	0.000402	2.61e+06	–
B2	–	–	–	–	–	–	–	–	–	–	–	–	–	–	–	0.669

— patent US20210230295A1 (HANGZHOU SUMGEN BIOTECH, published 2021)
